According to paper PMC4779955:

Molecular target: T1, Lin28A (GST-His6 fusion) (Homo sapiens, UniProt Q9H9Z2 1-209)
T1 sequence: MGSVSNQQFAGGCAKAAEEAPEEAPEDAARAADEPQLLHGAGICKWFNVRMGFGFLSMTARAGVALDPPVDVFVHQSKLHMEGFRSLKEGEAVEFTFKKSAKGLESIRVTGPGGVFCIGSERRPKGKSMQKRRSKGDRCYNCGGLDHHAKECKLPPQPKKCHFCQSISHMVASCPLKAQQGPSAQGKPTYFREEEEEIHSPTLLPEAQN
Experiment: EMSA

B1: Motif1 bubble duplex (dsDNA)
DNA 1: CTTCTGGCGCTGTCCATCACAAGGTGCTGAACCCAG
DNA 2: CTGGGTTCAGCACCATTTTTTGCGCCAGAAG
binding result: binds
